Reference: patent publication US12571800B2, “Means and methods for treating angiogenesis-related diseases” (Heidelberg Biotech GmbH, priority 2011, dated 2026)
Where two headings read alike, the source gives them in different places.

Legend:
HUVECs = experiment: Immunofluorescence, endothelial cell surface binding; format: cell-based, human
Experimental: HUVECs were incubated with Fc-endostatin and detected with Alexa 488 IgG or human NC-1 (hNC-1) trimer and detected by anti-His tag monoclonal antibody.
1.5 Immunocytochemistry. HUVECs were plated and grown on cover slips. […] The slips were incubated in the blocking buffer (2% BSA PBS) for 30 min. For hFc-endostatin or hFc groups, the slides were incubated with Alexa 488 antihuman IgG for imaging. For hNC-1 or IgG groups, the slides were incubated with mouse anti-His-tag monoclonal antibody, then probed by Alexa 488 anti-mouse IgG. Anti-fibronectin antibody (R&D) was used for secondary staining for all slides and probed by Alexa 594 anti-goat IgG and imaged by confocal-microscopy. DAPI counterstaining of nuclei is shown in blue.
2.3 Binding of oligomeric hFc-endostatin and hNC-1 to HUVECs. Immunoflourescence technique was employed to detect endothelial cell surface binding of oligomeric endostatin and NC-1.

Lewis Lung Cancer tumors = experiment: Sequential in-vivo passaging of LLC tumors under Fc-endostatin; parameters: species or system C57/B16 mice
Experimental: Dimerization of the NC-1 endostatin domains were achieved using IgG-Fc. […] Sequential in-vivo tumor passaging was performed to achieve prolonged and continuous exposure to anti-angiogenic therapy to enrich for the resistant tumor cell population.
Murine Lewis Lung Carcinoma (LLC) tumors were implanted s.c. into C57/B16 mice. Tumors were treated with a murine oligomeric-NC1 fragment, mFc-endostatin, at doses indicated. LLC tumors were exposed in-vivo for a prolonged period to mFc-endostatin by sequential transplantation of tumors (up to four passages, p4) once they evade therapy and reach a size of approximately 1000-2000 mm^3. Control tumors were also sequentially transplanted into new mice without mFc-endostatin treatment. Tumor volume was measured by caliper measurement (FIG. 8). After four passages, both mFc-endostatin resistant as well as control tumors were excised, total RNA was isolated and after QC hybridized on genome-wide microarrays for transcriptional analysis. Microarray data were analyzed using SUMO software package. Quantitative real-time RT-PCR was performed using Taqman technology to confirm the expression of candidate genes identified by microarray analysis.

ASPC-1 xenograft = experiment: Immunofluorescence distribution in ASPC-1 xenograft mice; conditions: mouse, in vivo
From the text: Immunohistochemistry was used to verify the distribution of Fc-endostatin in ASPC-1 xenograft mice after treatments. (A) The exogenous endostatin was detected by Alexa 488-labeled antibody (green) and vessel marker, CD31 was used and detected by Alexa 594-labeled antibody (red) in tumor, heart and kidney. (B) α-SMA, pericyte marker (red) was used to confirm the endostatin binding to tumor vessels. (C) Exogenous endostatin (green) distribution is similar to fibronectin (red) in tumor. […] (D) Endogenous collagen 18 (green) and fibronectin (red) were detected by polyclonal antibodies against endostatin and fibronectin in non-treated animal tumor. (E) Staining of Fc-endostatin and integrin α5β1. (F) Staining of vW and integrin α5β1. (G) E14.5 mouse brain embryonic sections were used to verify the distribution of fibronectin, VEGF and Fc-endostatin (Bar, 100 μm).
1.6 Immunohistochemistry. Tumors sections were rinsed by cold PBS and fixed with 4% paraformaldehyde for 10 min with before staining. Human Fc-endostatin was detected by Alexa 488 anti-human IgG. Antibodies to collagen 18 (R&D), fibronectin (R&D), integrin α5 (R&D) CD31 (BD Pharmingen, San Jose, CA) and von Willebrand Factor (Dako, Carpinteria, CA), α-SMA (Dako, Carpinteria, CA) were used for staining. The primary antibodies were detected by Alexa 488 or 594-labeled secondary antibodies (Molecular Probes, Eugene, OR). The sections were imaged by confocal-microscopy (model DM IRE2: Leica).
Immunofluorescence (IF) analysis was used to verify the systemic distribution of hFc-endostatin in an ASPC-1 xenograft animal model. […] In addition to CD31 (endothelial cell) staining, the pericyte marker, α-SMA was used to confirm the interaction of endostatin with blood vessels (FIG. 2B). To examine binding of endostatin to fibronectin, hFc-endostatin treated tumor sections of xenograft models were prepared. […] Co-localization of endogenous collagen 18 and endogenous fibronectin has also been detected (FIG. 2D). […] In addition, ex vivo E14.5 mouse brain embryonic sections were used to confirm this phenomenon. […]

[1] = in vivo, cited from earlier work
[2] = in vivo; cited from earlier work

B1: Fc-endostatin: human endostatin with the Fc domain at its N-terminus, expressed in NS/0 cells (protein)
chain: HSHRDFQPVLHLVALNSPLSGGMRGIRGADFQCFQQARAVGLAGTFRAFLSSRLQDLYSIVRRADRAAVPIVNLKDELLFPSWEALFSGSEGPLKPGARIFSFDGKDVLRHPTWPQKSVWHGSDPNGRRLTESYCETWRTEAPSATGQASSLLGGRLLGQSAASCHHAYIVLCIENSFMTASK
modifications: left off: a dimerising Fc or GST
notes: human endostatin with the Fc domain at its N-terminus, expressed in NS/0 cells
- binding to HUVECs (HUVECs; cells cultured only for 24 hours): poor binding
- binding to HUVECs (HUVECs; incubation time prolonged to 72 hours): significant binding
- tumor growth, passage 4 (P4) (Lewis Lung Cancer tumors; continuous exposure over four passages): growing even faster than non-treated control p4 tumors
- tumor growth, first passage (p1) (Lewis Lung Cancer tumors; p1): strong initial inhibition of tumor growth
- co-localization with fibronectin in tumor sections (ASPC-1 xenograft): co-localization with endogenous fibronection
- co-localization with integrin α5β1 (ASPC-1 xenograft): co-localized with integrin α5β1
- systemic distribution (antibody to Fc) (ASPC-1 xenograft): found not only in tumor but also in heart and kidney endothelial cells
- half-life in circulation [1]: longer half-life than endostatin
- half-life in circulation ([1]; listed as endostatin fused to the Fc domain of an IgG antibody): longer than a week
- smaller dose required for the same tumor reduction vs endostatin alone [2]: 50-100 fold
